Results: paper PMC5428420, “The trimer interface in the quaternary structure of the bifunctional prokaryotic FAD synthetase from Corynebacterium ammoniagenes” (Scientific Reports, 2017)
Like-named read-outs stand apart in the source and are kept apart here.

Legend:
CaFADS FMNAT activity = CaFADS FMNAT activity (Corynebacterium ammoniagenes, UniProt Q59263); experiment: Steady-state kinetics of the FMNAT activity (FMN → FAD), continuous fluorometric assay; assay type: biochemical; conditions: 25 °C, 20 mM PIPES pH 7.0, 10 mM MgCl2
Experimental: The CaFADS FMNAT activity was fluorometrically measured using a continuous assay. […] A Cary Eclipse spectrophotofluorometer with excitation and emission wavelengths of 420 nm and 530 nm, respectively, was used. FAD and FMN fluorescence were individually calibrated using standard solutions and the data were analyzed as previously described.

CaFADS RFK activity = conditions: 25 °C
Experimental: The CaFADS RFK activity was measured at 25 °C in 500 µl of 20 mM PIPES, 0.8 mM MgCl2, pH 7.0, containing 0.5–45 µM RF and 10–500 µM ATP. Reactions were initiated by addition of ~20 nM of the monomeric enzyme. After 1 min incubation at 25 °C, the reactions were stopped by boiling the mixtures for 5 min. The flavin composition in the supernatant was determined using an Alliance HPLC system (Waters), equipped with a 2707 autosampler and an HSST3 column (4.6 × 150 mm, 3.5 µm, Waters), preceded by a precolumn (4.6 × 20 mm, 3.5 µm, Waters). Flavins (FMN or FAD) produced from RF were quantified using their corresponding standard curves, as previously described[21].
When an excess of RF inhibited the RFK activity, the experimental data were interpreted through a model describing the substrate inhibition of a bi-substrate mechanism[26]. In these situations, the errors in apparent K m and k cat (^app K m and ^app k cat) increased as the inhibition constant (K i) approached K m ^S. Experiments were performed in triplicate.
CaFADS:ADP:Mg^2+ complex = molecular target: T1, CaFADS:ADP:Mg^2+ complex (Corynebacterium ammoniagenes, UniProt Q59263); conditions: FMN binding to preformed CaFADS:ADP:Mg2+ complex; ITC, 25 °C, pH 7.0, 10 mM MgCl2; ref [16], [21]; read-out: K d FADS:ADP:FMN, RFK site; cited from earlier work
T1 construct: made in house; host or cells: E. coli BL21(DE3)

CaFADS [1] = molecular target: T2, CaFADS (Corynebacterium ammoniagenes, UniProt Q59263); conditions: ITC; in brackets; ref [16], [21]; cited from earlier work
CaFADS [2] = molecular target: T2, CaFADS; set-up: made in house; host or cells: E. coli BL21(DE3); conditions: ITC, ref [16], [21], cited from earlier work
CaFADS [3] = molecular target: T2, CaFADS; set-up: made in house; host or cells: E. coli BL21(DE3); conditions: ITC, ref [16], [21], cited from earlier work; remark: listed apart in the source
CaFADS [4] = molecular target: T2, CaFADS; set-up: made in house; host or cells: E. coli BL21(DE3); conditions: ITC, ref [16], [21], cited from earlier work; remark: listed apart in the source
[5] = RF concentration giving ~80% of maximal activity, pH 7.0, 0.8 mM MgCl2

B1: WT: wild-type bifunctional FAD synthetase from Corynebacterium ammoniagenes (CaFADS) (protein)
chain: MDIWYGTAAVPKDLDNSAVTIGVFDGVHRGHQKLINATVEKAREVGAKAIMVTFDPHPVSVFLPRRAPLGITTLAERFALAESFGIDGVLVIDFTRELSGTSPEKYVEFLLEDTLHASHVVVGANFTFGENAAGTADSLRQICQSRLTVDVIDLLDDEGVRISSTTVREFLSEGDVARANWALGRHFYVTGPVVRGAGRGGKELGFPTANQYFHDTVALPADGVYAGWLTILPTEAPVSGNMEPEVAYAAAISVGTNPTFGDEQRSVESFVLDRDADLYGHDVKVEFVDHVRAMEKFDSVEQLLEVMAKDVQKTRTLLAQDVQAHKMAPETYFLQAES
With B1 the “K m ATP FMNAT activity” value (CaFADS FMNAT activity) was 22.4 ± 2.0 µM, the “K m FMN FMNAT activity” value (CaFADS FMNAT activity) was 10.1 ± 1.0 µM and the “k cat FMNAT activity” value (CaFADS FMNAT activity) was 5.5 ± 0.5 min⁻¹. For the same molecule, the “k cat/K m ATP FMNAT activity” value (CaFADS FMNAT activity) was 0.25 ± 0.03 min⁻¹ µM⁻¹, the “k cat/K m FMN FMNAT activity” value (CaFADS FMNAT activity) was 0.54 ± 0.07 min⁻¹ µM⁻¹ and the “K m ATP RFK activity” value (CaFADS RFK activity; [5]) was 28.2 ± 3.9 µM. For the same molecule, the “k cat RFK activity as function of ATP” value (CaFADS RFK activity; [5]) was 155 ± 5 min⁻¹, the “k cat/K m ATP RFK activity” value (CaFADS RFK activity; [5]) was 5.5 ± 0.8 min⁻¹ µM⁻¹ and the “k cat (apparent) RFK activity” value (CaFADS RFK activity; saturating ATP, apparent constant (RF substrate inhibition), 20 mM PIPES pH 7.0, 0.8 mM MgCl2) was 408 ± 230 min⁻¹. For the same molecule, the “K m RF (apparent) RFK activity” value (CaFADS RFK activity; saturating ATP, apparent constant, 20 mM PIPES pH 7.0, 0.8 mM MgCl2) was 11.7 ± 3.0 µM, the “k cat/K m RF RFK activity” value (CaFADS RFK activity; saturating ATP, apparent, pH 7.0, 0.8 mM MgCl2) was 34.9 ± 21.6 min⁻¹ µM⁻¹ and the Kd (CaFADS:ADP:Mg^2+ complex) was 900 ± 100 nM. For the same molecule, the “stoichiometry FADS:RF” value (CaFADS [1]) was 2, the Kd (CaFADS [2]; 25 °C, pH 7.0, 10 mM MgCl2, read-out: K d FADS:FMN) was 7.8 µM and the “stoichiometry FADS:FMN” value (CaFADS [2]; in brackets) was 1. The Kd (CaFADS [3]; 25 °C, pH 7.0, 10 mM MgCl2, read-out: K d FADS:FAD) was 740 nM, the “stoichiometry FADS:FAD” value (CaFADS [3]; in brackets) was 1 and the Kd (CaFADS [4]; 25 °C, pH 7.0, 10 mM MgCl2, average K d,av of two sites, read-out: K d FADS:ATP) was 30.2 µM. For the same molecule, the “stoichiometry FADS:ATP” value (CaFADS [4]; in brackets) was 2.
